Amyloid nucleation score data for 136 substances are collected here from the supplement of paper PMC12042874.

± gives the uncertainty stated by the source.

The nature of the first series: amyloid nucleation score (Sup35N fusion, yeast selection) (log enrichment); library NNK3; higher = more nucleation; inactive = no reads after selection. Summed up:
(§1)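 Three technical output replicates were used for random libraries. Psi-negative yeast expressing peptides of 20 random codons fused to Sup35N were induced with 100 μM copper sulfate for 24 hours and grown 7 days at 30°C on medium lacking adenine and uracil, and input and output plasmid inserts were Illumina-sequenced, excluding sequences with under 100 input reads. The nucleation score is the DiMSum log enrichment of output over input reads, centred on the mode score of non-aggregating sequences.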
On to GVSYSLCLLIGLNRIRMGMV, for which the amyloid nucleation score entry is “inactive”.

As to HTCVD, the amyloid nucleation score result was “inactive”.

AYSSVLINLSEYTLGIAVPM came in with an amyloid nucleation score of 0.062 ± 0.75.

Regarding VRGYLYRCKAGSLACHPDPG, the amyloid nucleation score result was “inactive”.

For the substance ISEVLLCAFVVYIMRKR, the amyloid nucleation score came to 0.953 ± 0.11.

For the substance GSPQVSAAGQF, the amyloid nucleation score result was “inactive”.

Substance RLIILNVFVSDNTNWLHRIH registered an amyloid nucleation score of 1.37 ± 0.083.

LGVGMQRYMSWRRK yielded an amyloid nucleation score of 0.504 ± 0.29.

With MSSSIILWNFCNMDRCSLVG, the amyloid nucleation score was found to be 2.23 ± 0.087.

As for PSNMRG, the amyloid nucleation score was determined as 0.147 ± 0.34.

As for GTYFSCVYGTKKL, the amyloid nucleation score result is “inactive”.

As to RKASSVFILGFVWWDHFEIL, the amyloid nucleation score result was “inactive”.

As to FLLVFC, the amyloid nucleation score is -0.021 ± 0.3.

In turn, YFCGAVEESERLRGMEGNPD came in with an amyloid nucleation score of 0.84 ± 0.2.

Substance KYLAFLQLCGAPMYLWTPPI displayed an amyloid nucleation score of 0.757 ± 0.3.

For the substance LWANNGSCFMCEYSHDGGKN, the amyloid nucleation score result is “inactive”.

As to HSSLNGRNG, the amyloid nucleation score entry is “inactive”.

Regarding YESHLSRRLLIMYIGAFLGR, the amyloid nucleation score result was “inactive”.

YCSYQNR: the amyloid nucleation score result was “inactive”.

Substance SIMREMWWSDTLFGGMNRFW gave an amyloid nucleation score of 0.992 ± 0.11.

The substance MRICFFDSIQHYQKNQD displayed an amyloid nucleation score of 2.1 ± 0.071.

For the substance ELFDERQRLEPI, the amyloid nucleation score entry was “inactive”.

With LFTSFYVSPYM, the amyloid nucleation score result was “inactive”.

As to LRRMDQMANDLFAI, the amyloid nucleation score entry was “inactive”.

In the case of GRSSMFRINNQMLCWVSIPC, the amyloid nucleation score result was “inactive”.

For CLCSTRVRGSFPPDSTVHNF, the amyloid nucleation score result was “inactive”.

LGYISFGFPVEDNWVHLACD: the amyloid nucleation score entry is “inactive”.

For the substance DLRGETNSYSGVCQERK, the amyloid nucleation score was found to be 0.104 ± 0.69.

For HQIQLVATHPTEILHAGTSN, the amyloid nucleation score entry was “inactive”.

Turning to TNTNLMYGSGYLLLNGMQCN, the amyloid nucleation score result was “inactive”.

Consider AFKDNNDCLEHCCRRVTDLV, for which the amyloid nucleation score entry was “inactive”.

On to FRYPIYGFFGMTGPTNSLTA, for which the amyloid nucleation score result was “inactive”.

In the case of FRLVGNIRTFYGYR, the amyloid nucleation score entry was “inactive”.

Take GSYFRATACPSLFCSFRVEW: the amyloid nucleation score result was “inactive”.

Substance PRSMNLHLTSSVTSCLKSVW displayed an amyloid nucleation score of -0.707 ± 0.9.

Regarding RSHPKCHSSLLHSWK, the amyloid nucleation score result is “inactive”.

ETAGMGTPSVRAHGLASGSV had an amyloid nucleation score of -0.672 ± 1.8.

The next series in a line: amyloid nucleation score (Sup35N fusion, yeast selection) (log enrichment); library NNK2; higher = more nucleation; inactive = no reads after selection. The essentials:
as §1
LLVAKYNLEYRMLSCSDNRQ showed an amyloid nucleation score of 3.1 ± 0.17.

Substance MTQPEGY showed an amyloid nucleation score of 0.325 ± 0.56.

Take VLNISMLLWIYNTYGNDGKV: the amyloid nucleation score came out at 8.029 ± 0.08.

In the case of SLFQCNGSCVIYSYGILLYL, the amyloid nucleation score came to 7.71 ± 0.082.

As to VFFGVSNVVSATYSYWLRIQ, the amyloid nucleation score was -0.627 ± 0.76.

Regarding YWGSFGDKLKLLNMCPLSLD, the amyloid nucleation score result is “inactive”.

For the substance GCNIRTNVGRLCMSYPDSNR, the amyloid nucleation score worked out at 0.636 ± 0.18.

On to IANRGNAKHVRWICMMHHRS, for which the amyloid nucleation score came out at 0.479 ± 0.41.

In the case of DEIVSERDIVSSNRLCGSIM, the amyloid nucleation score is -0.561 ± 1.1.

The substance SGTWMGAATY displayed an amyloid nucleation score of 3.62 ± 0.11.

Turning to WYMQGTLTAMGRGQTQYLSC, the amyloid nucleation score was 0.405 ± 0.64.

Substance LGFAGSVGICDRKTLDRREC came in with an amyloid nucleation score of 4.91 ± 0.064.

In the case of VSVVFNARPHRDSHNPSAER, the amyloid nucleation score amounted to 6.129 ± 0.054.

LVRGMDFHLNLDEKFFSATL yielded an amyloid nucleation score of -1.05 ± 0.56.

As for LKSDRSLMLIEPALDLIWYF, the amyloid nucleation score is -0.27 ± 1.1.

Substance AWGHIHAVPMYNALLYNSHD displayed an amyloid nucleation score of 0.695 ± 0.66.

On to QVAIPHHTRIETASARRVHT, for which the amyloid nucleation score was 1.09 ± 0.51.

In the case of YIWYFKMEVDYVLMMYAVAG, the amyloid nucleation score is 0.183 ± 1.

IYLTSIYRQFSMLLLGSRTE: the amyloid nucleation score entry was “inactive”.

As to GFGCPA, the amyloid nucleation score is -0.165 ± 1.

For the substance VWYITIYIWGMRRLIAWRMS, the amyloid nucleation score was found to be 0.31 ± 0.74.

Turning to RGQTMNHALRAHW, the amyloid nucleation score was found to be 0.639 ± 0.42.

Turning to SQTMVITFFSRCDVQIVKIN, the amyloid nucleation score was 5.583 ± 0.03.

Substance ESIRAGLRRSRLWNRGFGES came in with an amyloid nucleation score of 0.738 ± 0.27.

In turn, WDNLNDFHN came in with an amyloid nucleation score of -1.35 ± 1.1.

Consider GVVFFFGKDNGRDIMSGTRY, for which the amyloid nucleation score entry is “inactive”.

In turn, CIGSLNVAVW had an amyloid nucleation score of 0.152 ± 0.21.

For the substance SLYFLTGWSFMMDQGVSTPC, the amyloid nucleation score was found to be 6.934 ± 0.058.

Substance VRLPLIVYLKSAYTSPPWGS yielded an amyloid nucleation score of -0.702 ± 1.1.

As to KIWHLSQYCAVFSLVFKGLN, the amyloid nucleation score came to 2.41 ± 0.15.

YYGNFHLMSWVWSIGPCSIY had an amyloid nucleation score of 4.88 ± 0.11.

As to QWQGQHLT, the amyloid nucleation score was -1.4 ± 1.

With RAVEMVYCKLRMSQDGHLRW, the amyloid nucleation score was 5.482 ± 0.048.

The substance IRFNAYLRDEDYSKIREVLG returned an amyloid nucleation score of -1.41 ± 0.54.

As for LFGLNFNLSNNLFMFFSYTQ, the amyloid nucleation score stood at 3.46 ± 0.082.

With SLQGVM, the amyloid nucleation score was -1.04 ± 0.44.

Substance QLESRRDDHRVHESADGSA showed an amyloid nucleation score of 0.466 ± 0.33.

Turning to QNNKILFWQ, the amyloid nucleation score came out at 0.039 ± 0.31.

With NGIQGL, the amyloid nucleation score entry is “inactive”.

Turning to GCYLVNDASPVSHLVFLPM, the amyloid nucleation score entry was “inactive”.

Consider FVSGRKNETYSKVIHVSDVD, for which the amyloid nucleation score was -0.198 ± 0.62.

IYDCDTTMVSNNMRYILVLH showed an amyloid nucleation score of -0.858 ± 0.33.

As to TACVSWGPSYWV, the amyloid nucleation score result is “inactive”.

Substance NRRYLKPSGPEEGWMMLSGT returned an amyloid nucleation score of 1.03 ± 0.35.

Take ARSPCCLYQMHIYFAKAFAD: the amyloid nucleation score is -0.599 ± 0.33.

In turn, CVMMSQAFF gave an amyloid nucleation score of 5.22 ± 0.084.

Turning to LGSLDPKRHLYI, the amyloid nucleation score is -0.784 ± 1.1.

Take LYSWAFSS: the amyloid nucleation score result is “inactive”.

As for DPITFEVSCNANVIDPNSLV, the amyloid nucleation score is -1.22 ± 0.38.

The substance RVQDRYILNSVRQHHGAGQR gave an amyloid nucleation score of -0.14 ± 1.1.

As for MVINSFPPGWVRGHMIKSTG, the amyloid nucleation score was -0.39 ± 0.76.

In turn, MGTPLNFGCQY registered an amyloid nucleation score of -1.26 ± 0.48.

Substance IQVMSDMFKCDVTNVMGRRG registered an amyloid nucleation score of 2.99 ± 0.094.

Substance IPTSYSRPITIWGYR displayed an amyloid nucleation score of -1.3 ± 0.64.

Consider ALMVEDRH, for which the amyloid nucleation score was found to be 0.382 ± 0.8.

On to SKGRHVMGLGCEGNIWLKEL, for which the amyloid nucleation score was -0.377 ± 0.34.

For NLCSGTIVVFIGCMKAAWFV, the amyloid nucleation score amounted to 4.39 ± 0.045.

In turn, DAWKLNTDIYSANRYFIDLV returned an amyloid nucleation score of -0.651 ± 0.27.

Regarding DVFGRGLMKEMGFVNFTLYY, the amyloid nucleation score entry was “inactive”.

As to SVMFMNSSFQRAT, the amyloid nucleation score is -0.586 ± 0.42.

In turn, RIIKYIMNGRRFVVLWRVFS had an amyloid nucleation score of 5.342 ± 0.052.

As for GAEFTFGLFTYEFGIGQG, the amyloid nucleation score was 0.285 ± 0.57.

Consider YRGSGLMNTSDFVSVLALVN, for which the amyloid nucleation score entry is “inactive”.

FLIRDLAMHSSCSGSAIMIT gave an amyloid nucleation score of -0.713 ± 0.37.

On to HHLKGPSQPSIVEIFE, for which the amyloid nucleation score was -0.081 ± 0.31.

ENNVKLIRNTTNTVVYHLIP yielded an amyloid nucleation score of 7.64 ± 0.06.

For the substance GFDSDMVPHRSSRAVLC, the amyloid nucleation score turned out to be 1.33 ± 0.46.

On to VYATFPSTIYLMLVFMESGV, for which the amyloid nucleation score entry is “inactive”.

Take FLVLGFMIWYTLRCLALTFS: the amyloid nucleation score entry is “inactive”.

As for NFIKKGCGKGNLDLFSLRDV, the amyloid nucleation score result is “inactive”.

ASVIQGVRLLFFRNLARSTS came in with an amyloid nucleation score of 0.011 ± 0.79.

Substance SEGLG yielded an amyloid nucleation score of 3.53 ± 0.063.

Take PRGEFTWWSLGIIPNRWQCR: the amyloid nucleation score is -0.771 ± 1.1.

The substance GLVRPLSLMVETANAVHG returned an amyloid nucleation score of 1.39 ± 0.35.

The substance CPISCTYMEYTSWSSSRC came in with an amyloid nucleation score of 1.18 ± 0.44.

EDAFMSFCMVRLWDHF returned an amyloid nucleation score of -0.089 ± 1.1.

For KELLMAIASWSRLSGDIAVD, the amyloid nucleation score was -0.86 ± 0.78.

Consider LNHGNMEYWLSMDVINLSQI, for which the amyloid nucleation score was 0.238 ± 0.3.

In turn, CFCLPSNSNI gave an amyloid nucleation score of 1.19 ± 0.09.

IGLNTYTMF returned an amyloid nucleation score of 0.282 ± 0.49.

GDFVGMLYNRCGHHMVIILT showed an amyloid nucleation score of -0.731 ± 0.35.

GVGGRVWTC: the amyloid nucleation score was -0.998 ± 0.76.

Substance AVCWYNVQVRSSRNLYGQPK registered an amyloid nucleation score of 0.221 ± 0.5.

The substance DVQGWFVITSGFADGSQARR registered an amyloid nucleation score of 1.19 ± 0.17.

In turn, NVVMHRENVYFCLVNLHWTD came in with an amyloid nucleation score of 7.837 ± 0.04.

Regarding QFSCRCN, the amyloid nucleation score stood at 0.011 ± 0.79.

In the case of SRPMTWGRKDVGSGSLQDYA, the amyloid nucleation score stood at 0.248 ± 0.33.

For DYLRYRYSMFCTCPAVTQS, the amyloid nucleation score is -0.567 ± 0.78.

The substance PKQDTA had an amyloid nucleation score of -0.967 ± 0.36.

On to LLFLAG, for which the amyloid nucleation score was -0.358 ± 0.79.

Substance CSQVALLNKLFLPG showed an amyloid nucleation score of -1.14 ± 0.38.

On to LVKCSVSVRGEILRFLRYMA, for which the amyloid nucleation score came out at 0.26 ± 0.22.

Turning to FVNQPKVRYLVSCYFMANLP, the amyloid nucleation score came out at 0.016 ± 0.54.

For the substance ILRCICRNILSSSRVRCSYH, the amyloid nucleation score result is “inactive”.

Turning to VISQRLFS, the amyloid nucleation score was -0.155 ± 0.74.

In turn, EYNDRCV gave an amyloid nucleation score of 0.974 ± 0.28.

The substance PLMSLLPPPNTR had an amyloid nucleation score of -0.935 ± 0.44.

On to TLSKVFRVRPGSMTTHCYIV, for which the amyloid nucleation score entry is “inactive”.

Regarding NSGSYTSSFNDLVDTLSVLS, the amyloid nucleation score entry is “inactive”.
